Results from patent US20050037967A1 (RESEARCH DEVELOPMENT FOUNDATION, published 2005).

How the values were obtained:
[1] = target: Flt-1 on osteoclast precursor cells (RAW 264.7 cells and mouse bone marrow-derived monocytes) (mouse) (UniProt P35969); test: cell-based or functional assay
FLK-1 on PAE/FLK-1 cells = test: cell-based or functional assay
[2] = target: Flk-1 on murine brain endothelioma bEnd.3 cells (mouse) (UniProt P35918); test: cell-based or functional assay
[3] = target: human kinase domain receptor (KDR, VEGFR-2) on cells (human) (UniProt P35968); test: cell-based or functional assay
[4] = target: human FLT-1 receptor (VEGFR-1) on PAE/FLT-1 cells (human) (UniProt P17948); test: cell-based or functional assay
[5] = target: KDR/Flk-1 on adult bovine aortic arch-derived endothelial cells (ABAE) (bovine); test: cell-based or functional assay
[6] = target: T1, soluble mouse Flk-1, purified and biotinylated, expressed in Sf9 cells (mouse, UniProt P35918 20-762); test: ELISA, biotinylated soluble mouse Flk-1 on NeutrAvidin-coated plates; detection with 2C3
T1 construct: Captured on NeutrAvidin-coated plates; Only 'soluble' is said of the construct; also called biotinylated mouse flk-1 receptor; flk-1 receptor
T1 sequence (P35918 20-762 limits assumed): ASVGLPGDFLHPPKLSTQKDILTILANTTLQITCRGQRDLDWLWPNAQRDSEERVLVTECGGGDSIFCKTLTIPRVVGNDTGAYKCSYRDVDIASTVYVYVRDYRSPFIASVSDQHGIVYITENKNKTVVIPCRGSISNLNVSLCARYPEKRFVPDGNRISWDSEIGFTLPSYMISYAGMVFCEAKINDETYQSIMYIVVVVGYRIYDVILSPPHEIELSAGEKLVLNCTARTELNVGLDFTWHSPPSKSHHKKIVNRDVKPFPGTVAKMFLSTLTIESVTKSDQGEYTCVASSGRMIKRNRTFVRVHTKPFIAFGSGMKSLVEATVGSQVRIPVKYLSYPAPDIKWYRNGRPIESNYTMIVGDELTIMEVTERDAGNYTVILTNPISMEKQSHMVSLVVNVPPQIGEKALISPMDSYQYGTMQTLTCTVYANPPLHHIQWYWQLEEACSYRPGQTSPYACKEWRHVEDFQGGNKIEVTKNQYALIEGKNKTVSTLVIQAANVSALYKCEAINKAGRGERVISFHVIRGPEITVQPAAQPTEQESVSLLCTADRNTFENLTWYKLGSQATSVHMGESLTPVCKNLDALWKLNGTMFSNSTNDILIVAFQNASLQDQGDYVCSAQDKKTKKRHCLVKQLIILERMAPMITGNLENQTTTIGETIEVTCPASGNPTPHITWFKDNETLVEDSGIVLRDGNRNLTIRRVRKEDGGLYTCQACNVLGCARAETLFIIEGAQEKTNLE

human FLT-1 receptor (VEGFR-1) on PAE/FLT-1 cells (human), sequence (P17948 27-1338): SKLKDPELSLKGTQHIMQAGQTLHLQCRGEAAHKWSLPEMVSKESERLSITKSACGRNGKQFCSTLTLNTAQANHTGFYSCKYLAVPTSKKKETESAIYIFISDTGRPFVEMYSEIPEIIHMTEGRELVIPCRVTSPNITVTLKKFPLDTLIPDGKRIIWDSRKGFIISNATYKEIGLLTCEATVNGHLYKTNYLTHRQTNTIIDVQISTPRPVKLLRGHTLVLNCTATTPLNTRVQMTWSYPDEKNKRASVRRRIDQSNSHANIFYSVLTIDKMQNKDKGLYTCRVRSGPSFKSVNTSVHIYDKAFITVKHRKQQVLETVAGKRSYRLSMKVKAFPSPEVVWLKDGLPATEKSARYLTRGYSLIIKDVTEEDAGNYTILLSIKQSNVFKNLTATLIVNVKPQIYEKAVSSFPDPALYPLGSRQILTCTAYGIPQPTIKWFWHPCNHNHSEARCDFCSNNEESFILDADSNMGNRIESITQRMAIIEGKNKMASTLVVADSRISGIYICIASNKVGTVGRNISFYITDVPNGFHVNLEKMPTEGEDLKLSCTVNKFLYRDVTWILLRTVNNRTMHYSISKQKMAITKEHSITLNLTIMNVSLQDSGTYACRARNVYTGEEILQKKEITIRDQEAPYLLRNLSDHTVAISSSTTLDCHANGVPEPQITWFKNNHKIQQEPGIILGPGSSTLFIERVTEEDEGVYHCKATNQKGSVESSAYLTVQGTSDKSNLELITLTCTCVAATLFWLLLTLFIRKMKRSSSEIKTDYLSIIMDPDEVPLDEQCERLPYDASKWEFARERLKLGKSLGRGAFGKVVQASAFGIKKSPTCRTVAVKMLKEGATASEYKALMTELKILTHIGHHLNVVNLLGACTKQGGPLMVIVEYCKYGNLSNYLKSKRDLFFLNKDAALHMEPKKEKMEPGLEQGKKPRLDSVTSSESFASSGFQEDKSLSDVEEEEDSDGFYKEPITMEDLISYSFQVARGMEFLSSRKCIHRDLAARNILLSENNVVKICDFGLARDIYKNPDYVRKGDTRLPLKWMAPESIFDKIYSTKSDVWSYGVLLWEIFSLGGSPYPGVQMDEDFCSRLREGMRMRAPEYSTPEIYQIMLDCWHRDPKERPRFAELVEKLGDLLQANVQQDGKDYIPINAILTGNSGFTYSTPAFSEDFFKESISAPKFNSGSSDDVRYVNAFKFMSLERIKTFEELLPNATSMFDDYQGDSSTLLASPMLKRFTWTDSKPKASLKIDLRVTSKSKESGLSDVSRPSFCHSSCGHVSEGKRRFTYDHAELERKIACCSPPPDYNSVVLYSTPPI
FLK-1 on PAE/FLK-1 cells, sequence (P35968 20-1356): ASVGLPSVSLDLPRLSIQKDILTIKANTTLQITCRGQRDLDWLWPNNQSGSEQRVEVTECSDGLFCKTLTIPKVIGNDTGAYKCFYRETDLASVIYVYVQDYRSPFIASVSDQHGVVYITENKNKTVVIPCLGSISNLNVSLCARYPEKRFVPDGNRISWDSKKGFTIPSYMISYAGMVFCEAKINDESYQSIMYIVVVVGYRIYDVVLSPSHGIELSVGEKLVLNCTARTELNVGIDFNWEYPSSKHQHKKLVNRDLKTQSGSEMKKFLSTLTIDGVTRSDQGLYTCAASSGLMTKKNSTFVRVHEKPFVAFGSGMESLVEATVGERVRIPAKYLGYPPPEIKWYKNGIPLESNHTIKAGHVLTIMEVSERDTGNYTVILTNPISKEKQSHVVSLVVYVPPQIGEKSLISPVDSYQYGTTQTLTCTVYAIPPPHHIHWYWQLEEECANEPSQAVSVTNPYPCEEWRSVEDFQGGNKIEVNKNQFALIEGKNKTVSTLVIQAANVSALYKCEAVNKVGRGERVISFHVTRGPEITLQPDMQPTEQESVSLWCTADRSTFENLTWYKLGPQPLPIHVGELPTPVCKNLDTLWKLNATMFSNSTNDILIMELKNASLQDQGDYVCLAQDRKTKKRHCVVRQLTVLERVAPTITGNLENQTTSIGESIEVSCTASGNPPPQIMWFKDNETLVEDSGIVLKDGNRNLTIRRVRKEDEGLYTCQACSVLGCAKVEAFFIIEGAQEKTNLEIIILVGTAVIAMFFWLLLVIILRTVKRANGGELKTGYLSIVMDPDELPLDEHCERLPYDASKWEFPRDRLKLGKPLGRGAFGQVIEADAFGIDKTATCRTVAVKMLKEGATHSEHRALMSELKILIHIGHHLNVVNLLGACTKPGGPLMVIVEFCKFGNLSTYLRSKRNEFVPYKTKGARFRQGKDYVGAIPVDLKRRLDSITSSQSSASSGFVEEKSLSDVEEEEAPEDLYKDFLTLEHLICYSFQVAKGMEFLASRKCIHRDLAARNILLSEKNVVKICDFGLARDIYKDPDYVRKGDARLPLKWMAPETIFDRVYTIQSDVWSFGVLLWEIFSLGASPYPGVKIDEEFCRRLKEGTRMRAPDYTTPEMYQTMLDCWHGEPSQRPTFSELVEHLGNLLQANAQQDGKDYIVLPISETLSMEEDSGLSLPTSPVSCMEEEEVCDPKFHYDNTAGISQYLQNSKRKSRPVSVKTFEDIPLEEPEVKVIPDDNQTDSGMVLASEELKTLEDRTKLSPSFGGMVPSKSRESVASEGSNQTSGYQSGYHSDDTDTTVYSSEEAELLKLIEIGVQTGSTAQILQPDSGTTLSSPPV
human kinase domain receptor (KDR, VEGFR-2) on cells (human), sequence (P35968 20-1356): as above
Flk-1 on murine brain endothelioma bEnd.3 cells (mouse), sequence (P35918 20-1345): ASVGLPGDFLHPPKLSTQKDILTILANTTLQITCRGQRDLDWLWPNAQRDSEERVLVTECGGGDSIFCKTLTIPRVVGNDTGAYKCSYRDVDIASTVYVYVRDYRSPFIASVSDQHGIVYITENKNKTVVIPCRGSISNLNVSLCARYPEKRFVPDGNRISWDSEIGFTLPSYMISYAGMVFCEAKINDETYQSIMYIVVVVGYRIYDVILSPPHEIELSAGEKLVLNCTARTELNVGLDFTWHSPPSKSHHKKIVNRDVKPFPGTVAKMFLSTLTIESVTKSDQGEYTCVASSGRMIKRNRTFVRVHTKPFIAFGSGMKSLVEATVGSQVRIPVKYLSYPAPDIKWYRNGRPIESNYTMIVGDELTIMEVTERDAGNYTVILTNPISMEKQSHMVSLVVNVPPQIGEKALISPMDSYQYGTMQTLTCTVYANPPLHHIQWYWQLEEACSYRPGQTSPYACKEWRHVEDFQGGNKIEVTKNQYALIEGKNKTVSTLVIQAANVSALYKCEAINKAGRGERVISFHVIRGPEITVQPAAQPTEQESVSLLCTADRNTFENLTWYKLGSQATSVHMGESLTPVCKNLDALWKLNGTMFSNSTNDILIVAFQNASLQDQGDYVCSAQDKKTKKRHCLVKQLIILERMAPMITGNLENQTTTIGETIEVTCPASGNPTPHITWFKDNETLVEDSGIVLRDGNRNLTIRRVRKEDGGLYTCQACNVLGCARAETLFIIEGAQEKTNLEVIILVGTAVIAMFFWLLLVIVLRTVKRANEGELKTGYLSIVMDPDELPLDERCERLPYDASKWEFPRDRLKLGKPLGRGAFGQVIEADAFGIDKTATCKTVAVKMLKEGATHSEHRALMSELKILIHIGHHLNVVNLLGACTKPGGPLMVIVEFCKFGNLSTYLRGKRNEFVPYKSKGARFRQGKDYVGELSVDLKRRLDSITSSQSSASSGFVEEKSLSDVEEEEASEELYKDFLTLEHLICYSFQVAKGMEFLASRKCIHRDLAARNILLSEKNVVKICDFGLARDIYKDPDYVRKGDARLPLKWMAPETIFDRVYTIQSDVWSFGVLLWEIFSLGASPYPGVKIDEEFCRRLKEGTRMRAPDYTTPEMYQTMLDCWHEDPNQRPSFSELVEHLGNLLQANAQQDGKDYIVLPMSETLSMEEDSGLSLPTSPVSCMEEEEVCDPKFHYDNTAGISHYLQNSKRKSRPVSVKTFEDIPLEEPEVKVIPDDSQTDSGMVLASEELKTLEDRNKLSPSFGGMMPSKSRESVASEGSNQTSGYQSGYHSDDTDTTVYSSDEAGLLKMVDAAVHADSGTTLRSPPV

For “VEGF121/rGel fusion toxin (VEGF121 at the N-terminus, G4S tether, recombinant gelonin) (from UniProt P15692 27-147; P33186 47-297)”, the IC50, cytotoxicity on bone marrow-derived monocytes [1] was 10 nM, the IC50, cytotoxicity on dividing RAW cells [1] was 40 nM and the IC50, cytotoxicity on PAE/FLK-1 cells, XTT, 72 h (FLK-1 on PAE/FLK-1 cells) was 1 nM. The IC50 for VEGF121/rGel (nM), cytotoxicity, bEnd3 (log phase) [2] was 1 nM, the Targeting index, bEnd3 (log phase) [2] was 100 and the IC50, cytotoxicity on log-phase PAE/KDR cells, 72 h (bladder tumor comparison experiment) [3] was 1 nM. It also gave an IC50 for VEGF121/rGel (nM), cytotoxicity, HUVEC (hypoxia) [3] of 700 nM, an IC50 for VEGF121/rGel (nM), cytotoxicity, HUVEC (normoxia) [3] of 800 nM and an IC50 for VEGF121/rGel (nM), cytotoxicity, PAE/KDR (confluent) [3] of 30 nM. For the same molecule, the IC50 for VEGF121/rGel (nM), cytotoxicity, PAE/KDR (log phase), 72 h [3] was 0.5 nM, the Targeting index (ratio of IC50 of rGel to VEGF121/rGel), PAE/KDR (log phase) [3] was 600 and the Targeting index, HUVEC (hypoxia) [3] was 1. The Targeting index, HUVEC (normoxia) [3] was 1, the Targeting index, PAE/KDR (confluent) [3] was 167 and the dose inhibiting tube formation of PAE/KDR cells on Matrigel by 50% [3] was 1 nM. For the same molecule, the IC50 for VEGF121/rGel (nM), cytotoxicity, PAE/FLT-1 (confluent) [4] was > 5000 nM, the IC50 for VEGF121/rGel (nM), cytotoxicity, PAE/FLT-1 (log phase) [4] was 300 nM and the Targeting index, PAE/FLT-1 (confluent) [4] was < 2. For the same molecule, the Targeting index, PAE/FLT-1 (log phase) [4] was 1, the dose inhibiting tube formation of PAE/Flt-1 cells on Matrigel by 50% [4] was 100 nM and the IC50 for VEGF121/rGel (nM), cytotoxicity, ABAE (log phase) [5] was 0.059 nM. For the same molecule, the Targeting index, ABAE (log phase) [5] was 8.9.

“GrB/VEGF121 fusion protein (mature granzyme B, G4S tether, VEGF121) (from UniProt P10144 21-247; P15692 27-147)” was tested, and the IC50, clonogenic (colony-forming) assay on PAE/FLK-1 cells (FLK-1 on PAE/FLK-1 cells) was 20 nM, the IC50, cytotoxicity on log-phase PAE/FLK-1 cells, XTT, 72 h (FLK-1 on PAE/FLK-1 cells) was 10 nM and the clonogenic (colony-forming) assay on PAE/FLT-1 cells [4] was > 100 nM. For the same molecule, the cytotoxicity on log-phase PAE/FLT-1 cells, XTT, 72 h [4] was > 200 nM.

B1: native human VEGF121 (ligand)
chain: APMAEGGGQNHHEVVKFMDVYQRSYCHPIETLVDIFQEYPDEIEYIFKPSCVPLMRCGGCCNDEGLECVPTEESNITMQIMRIKPHQGQHIGEMSFLQHNKCECRPKKDRARQEKCDKPRR
notes: mature; also called free VEGF121
B1: binds [6].
